Results on 14 molecules are retold here after patent US7132274B2, “Method for identifying modulators of CLK-1 and UbiF activity” (priority 2003, dated 2006).

Test [1] concerns E. coli JF496 (ubiF411). In words: JF496 complementation (growth rescue) assay. The format is cell-based. As to conditions: C. elegans CLK-1 variants expressed in JF496; growth rate relative to wild type CLK-1. The source says: JF496 is useful for complementation assays using eukaryotic clk-1. As with all other ubi mutants, JF496 has a weak growth in liquid culture, and cannot use succinate as a unique carbon source. These characteristics were used to develop a gain-of-function assay, where JF496 was transformed with a eukaryotic clk-1 (here from C. elegans) and then wild-type growth was identified. Transgenic E. coli ubiF (Kwon et al., 2000 FEMS Microbiol Lett, 186, 157–161), and clk-1 from proteobacteria (Stenmark et al., 2001 J Biol Chem, 276, 33297–33300) have been tested in JF496.
Growth conditions—For complementation assays, plasmids are freshly transformed by electroporation into E. coli JF496 ubiF(DE3) and grown overnight at 37° C. in 5 mL LB with 50 μg/mL ampicillin. The cultures are diluted 1/10 and OD600 measured. A bacterial volume corresponding to an OD600 of 0.03 in 5 mL is taken, centrifuged and resuspended in 100 μl of M9 medium. It is then added into 5 mL M9 containing 1 mM MgSO4, 20 μM CaCl2, 0.5 μg/mL thiamine, 0.12% casamino acids, 40 μg/mL D-L-methionine, 100 μg/mL L-asparagine, trace metals and 50 μg/mL ampicillin. This medium is supplemented with 0.5% glucose or 0.5% succinate. E. coli JF496 is grown at 37° C. for 8 hours. Samples (700-μL) are taken at 2-hour intervals and the OD600 is measured in order to determine the growth rate.
Growth conditions—as described above in Section 6.1
A selection of CLK-1 variants were constructed by site-directed mutagenesis and cloned into the JF496 system to assess their enzymatic activity relative to the wild type. The respective strains of JF496-clk-1 variants were cultured as described and the growth rate of each were measured. The results as shown in Table 4 indicate that certain residues and regions are not tolerant of amino acid substitution (amino acid substitution is indicated by one-letter codes).

For test [2], the system named is E. coli JF496 (ubiF411). As to conditions: yeast orthologue of clk-1; cited from earlier work.

B1: CDB 710: C. elegans CLK-1 variant, mutation Y90G (protein, UniProt P48376 9-187, looked up, variant Y90G)
NADPH-dependent …: AHTAASRQALIEKIIRVDHAGELGADRIYAGQLAVLQGSSVGSVIKKMWDEEKEHLDTMERLAAKHNVPHTVFSPVFSVAAGALGVGSALLGKEGAMACTIAVEELIGQHYNDQLKELLADDPETHKELLKILTRLRDEELHHHDTGVEHDGMKAPAYSALKWIIQTGCKGAIAIAEKI
As for B1, the “Activity in JF496 system” value with E. coli JF496 (ubiF411) [1] is “Active”.

B2: CDB 728: C. elegans CLK-1 variant, mutation E112A (protein, UniProt P48376 9-187, looked up, variant E112A)
NADPH-dependent …: AHTAASRQALIEKIIRVDHAGELGADRIYAGQLAVLQGSSVGSVIKKMWDEEKEHLDTMERLAAKHNVPHTVFSPVFSVAAYALGVGSALLGKEGAMACTIAVAELIGQHYNDQLKELLADDPETHKELLKILTRLRDEELHHHDTGVEHDGMKAPAYSALKWIIQTGCKGAIAIAEKI
As for B2, the “Activity in JF496 system” value in the test on E. coli JF496 (ubiF411) [1] is given as “Inactive”.

B3: CDB 700: C. elegans CLK-1 variant, mutation C107A/C177A (protein, UniProt P48376 9-187, looked up, variant C107A C177A)
NADPH-dependent …: AHTAASRQALIEKIIRVDHAGELGADRIYAGQLAVLQGSSVGSVIKKMWDEEKEHLDTMERLAAKHNVPHTVFSPVFSVAAYALGVGSALLGKEGAMAATIAVEELIGQHYNDQLKELLADDPETHKELLKILTRLRDEELHHHDTGVEHDGMKAPAYSALKWIIQTGAKGAIAIAEKI
As for B3, in the test with E. coli JF496 (ubiF411) [1], the “Activity in JF496 system” value is “Active”.

B4: CDB 689: C. elegans CLK-1 variant, mutation C107A (protein, UniProt P48376 9-187, looked up, variant C107A)
NADPH-dependent …: AHTAASRQALIEKIIRVDHAGELGADRIYAGQLAVLQGSSVGSVIKKMWDEEKEHLDTMERLAAKHNVPHTVFSPVFSVAAYALGVGSALLGKEGAMAATIAVEELIGQHYNDQLKELLADDPETHKELLKILTRLRDEELHHHDTGVEHDGMKAPAYSALKWIIQTGCKGAIAIAEKI
For B4, the “Activity in JF496 system” value with E. coli JF496 (ubiF411) [1] is given as “Active”.

B5: CDB 719: C. elegans CLK-1 variant, mutation H63A (protein, UniProt P48376 9-187, looked up, variant H63A)
NADPH-dependent …: AHTAASRQALIEKIIRVDHAGELGADRIYAGQLAVLQGSSVGSVIKKMWDEEKEALDTMERLAAKHNVPHTVFSPVFSVAAYALGVGSALLGKEGAMACTIAVEELIGQHYNDQLKELLADDPETHKELLKILTRLRDEELHHHDTGVEHDGMKAPAYSALKWIIQTGCKGAIAIAEKI
Take B5: the “Activity in JF496 system” value in the test with E. coli JF496 (ubiF411) [1] was “Inactive”.

B6: CDB 690: C. elegans CLK-1 variant, mutation C177A (protein, UniProt P48376 9-187, looked up, variant C177A)
NADPH-dependent …: AHTAASRQALIEKIIRVDHAGELGADRIYAGQLAVLQGSSVGSVIKKMWDEEKEHLDTMERLAAKHNVPHTVFSPVFSVAAYALGVGSALLGKEGAMACTIAVEELIGQHYNDQLKELLADDPETHKELLKILTRLRDEELHHHDTGVEHDGMKAPAYSALKWIIQTGAKGAIAIAEKI
Consider B6, for which, in the test on E. coli JF496 (ubiF411) [1], the “Activity in JF496 system” value is recorded as “Active”.

B7: CDB 723: C. elegans CLK-1 variant, mutation E148K/L149N (protein, UniProt P48376 9-187, looked up, variant E148K L149N)
NADPH-dependent …: AHTAASRQALIEKIIRVDHAGELGADRIYAGQLAVLQGSSVGSVIKKMWDEEKEHLDTMERLAAKHNVPHTVFSPVFSVAAYALGVGSALLGKEGAMACTIAVEELIGQHYNDQLKELLADDPETHKELLKILTRLRDEKNHHHDTGVEHDGMKAPAYSALKWIIQTGCKGAIAIAEKI
Regarding B7, the “Activity in JF496 system” value in the test with E. coli JF496 (ubiF411) [1] is “Inactive”.

B8: CDB 724: C. elegans CLK-1 variant, mutation E62L (protein, UniProt P48376 9-187, looked up, variant E62L)
NADPH-dependent …: AHTAASRQALIEKIIRVDHAGELGADRIYAGQLAVLQGSSVGSVIKKMWDEEKLHLDTMERLAAKHNVPHTVFSPVFSVAAYALGVGSALLGKEGAMACTIAVEELIGQHYNDQLKELLADDPETHKELLKILTRLRDEELHHHDTGVEHDGMKAPAYSALKWIIQTGCKGAIAIAEKI
In the case of B8, the “Activity in JF496 system” value with E. coli JF496 (ubiF411) [1] is listed as “Active”.

B9: CDB 716: C. elegans CLK-1 variant, mutation H118A (protein, UniProt P48376 9-187, looked up, variant H118A)
NADPH-dependent …: AHTAASRQALIEKIIRVDHAGELGADRIYAGQLAVLQGSSVGSVIKKMWDEEKEHLDTMERLAAKHNVPHTVFSPVFSVAAYALGVGSALLGKEGAMACTIAVEELIGQAYNDQLKELLADDPETHKELLKILTRLRDEELHHHDTGVEHDGMKAPAYSALKWIIQTGCKGAIAIAEKI
With B9, in the test on E. coli JF496 (ubiF411) [1], the “Activity in JF496 system” value is on record as “Inactive”.

B10: CDB 720: C. elegans CLK-1 variant, mutation E30A (protein, UniProt P48376 9-187, looked up, variant E30A)
NADPH-dependent …: AHTAASRQALIEKIIRVDHAGALGADRIYAGQLAVLQGSSVGSVIKKMWDEEKEHLDTMERLAAKHNVPHTVFSPVFSVAAYALGVGSALLGKEGAMACTIAVEELIGQHYNDQLKELLADDPETHKELLKILTRLRDEELHHHDTGVEHDGMKAPAYSALKWIIQTGCKGAIAIAEKI
B10: the “Activity in JF496 system” value with E. coli JF496 (ubiF411) [1] is on record as “Inactive”.

B11: CDB 721: C. elegans CLK-1 variant, mutation Y37A (protein, UniProt P48376 9-187, looked up, variant Y37A)
NADPH-dependent …: AHTAASRQALIEKIIRVDHAGELGADRIAAGQLAVLQGSSVGSVIKKMWDEEKEHLDTMERLAAKHNVPHTVFSPVFSVAAYALGVGSALLGKEGAMACTIAVEELIGQHYNDQLKELLADDPETHKELLKILTRLRDEELHHHDTGVEHDGMKAPAYSALKWIIQTGCKGAIAIAEKI
On to B11, for which, in the test on E. coli JF496 (ubiF411) [1], the “Activity in JF496 system” value was “Active”.

B12: CDB 726: C. elegans CLK-1 variant, mutation G32D (protein, UniProt P48376 9-187, looked up, variant G32D)
NADPH-dependent …: AHTAASRQALIEKIIRVDHAGELDADRIYAGQLAVLQGSSVGSVIKKMWDEEKEHLDTMERLAAKHNVPHTVFSPVFSVAAYALGVGSALLGKEGAMACTIAVEELIGQHYNDQLKELLADDPETHKELLKILTRLRDEELHHHDTGVEHDGMKAPAYSALKWIIQTGCKGAIAIAEKI
For B12, the “Activity in JF496 system” value with E. coli JF496 (ubiF411) [1] is “Inactive”.

B13: CDB 725: C. elegans CLK-1 variant, mutation E147A/H151Q, less active than wild type (protein, UniProt P48376 9-187, looked up, variant E147A H151Q)
NADPH-dependent …: AHTAASRQALIEKIIRVDHAGELGADRIYAGQLAVLQGSSVGSVIKKMWDEEKEHLDTMERLAAKHNVPHTVFSPVFSVAAYALGVGSALLGKEGAMACTIAVEELIGQHYNDQLKELLADDPETHKELLKILTRLRDAELHQHDTGVEHDGMKAPAYSALKWIIQTGCKGAIAIAEKI
B13: the “Activity in JF496 system” value in the test on E. coli JF496 (ubiF411) [1] is on record as “Partially active”.

B14: Saccharomyces pombe coq7: yeast orthologue of clk-1 (protein, UniProt O74826 28-216, looked up)
5-demethoxyubiquinone …: ISMGRKELSEKDSNILDSVIRVDQAGELGANQIYKGQHFILQFTDPKVAPTIQHMWDQEKYHLATFDNYVLKNRVRPTFLRPFWDIAGFALGAGTALLGTKAAMACTEAVETVIGGHYNDQLRETAHLENKAPEFKEIRSHLAEFRDDELEHLNTAVEGWNAKEAPAHALLTNAIQMGCKAAIWMCKRF
With B14, in the test with E. coli JF496 (ubiF411) [2], the “complementation of UbiF-deficiency in JF496 bacteria” value was “cannot complement”.
